Data on eight molecules can be found in patent US12077763B2, “RNA-based control of powdery mildew” (Greenlight Biosciences, Inc., priority 2021, dated 2024).

The test system of the data set is E. necator. Nature of the data set: Leaf disc assay, dry inoculum (settling tower), decrease in disease severity / hyphal growth (Example 2). The note with it: decrease in disease severity (hyphal growth) relative to untreated control, value ± SE; for % decrease =/− SE TP1: time point 1 (untreated control hyphal growth ≥50%); for % decrease =/− SE TP2: time point 2.

B1: GS1824: dsRNA trigger SEQ ID NO 200; gene target WD repeat domain-containing protein 83 (nucleic acid)
DNA: CTTGCCATCTCTTCCAACCTTTCTCTTACCATCAAACTTTGTTCCTTTTACTGTGATCCTCTCGACAAGTTTTCCGCTCAATGTATCCCAGACAACCACTTCACCATCTTGTCCTTCAATATTCTCGTTTCCAGAAAGTATCCATCTCTCTCTTCCACCAAAACAGTTCCATATTCGAAATTCTTTGTTTTCCCAGCAATCTGCACGATAACTCCTTAGTAATTTACCATTCTCGGTATCCATTAGTCTAAGCTGACTATCCAGTCCACCTACAAGTAGACCTTTTTTATCTATTGTCTTCCTTAGACATGTCACAGGAGCACCAATAACATCGACAACAATTTGTCCCATTCTAATGTCGTATTTCCTAACTTTTCCATCGACACTACTGGTCCATATCTCGCTATCACTCGCTAATACGCAGCTCACACTATCACCAGCCTCTGTTAGAACCATAACTGGCTTAGCACTCGAGCTCTTCACATCCCAGATACGAGCACTGGCATCAAAACCTCCACTAATAAGAAGACTGGCTCCATCCCCAGCAAAAGTAACGGTATTGATGCGTGCCGAATGACCATTGTTGCCACTAAAT
Take B1: the “% decrease =/− SE TP1” value stood at 26 ± 7% and the “% decrease =/− SE TP2” value came out at 19.5 ± 8%.

B2: GS1822: dsRNA trigger SEQ ID NO 206; gene target Putative phospholipid-transporting ATPase C6C3.06c (nucleic acid)
DNA: TCTCTTCGCGACCGATATCCATTTCCTGAGGGTAACAGAGAATGATCTTCAGCACTGTCTGGGTTGTATCTGCCAGTTCCCTCAACATCTGGGTCGTCCCTCAATAAGCTATGTAAGTCCTCTTCAGCGTAGTCTAAATTCCTTGGGGCCCCATTTCTTCTTCCTAACCCTCTGAATCCGCTCATGCGTAGATTTCTCAACGGAATATTGCTTTCAGTTCTCCAGTCATGCGCTTTCGGTTTGATCCCTTGTTCAAGCTCCTGGATATCTAAATCCAGATCGGAGTCCGAATCAGCTTGAGGTGGAATTTGATCGCCCTGATGATAATATGAGCCCGAAGACATGCCTCATTGTATTTTATCGTTTGATCTCTATAATCTCCTAGGTGATGTTATAAAGCTTGACCGCATAAAATCGGTTAATCATTTAAGCAAATGCAGTTGCGGTGTGTCATATCTTTCACGGCAGCATCTAGTATGTCTAGTATGGCTGCTACTGTATTTTAAATAAACCAAAACATGTTCAACACATTTCATAAGGTATAAGAAGGATTGTGAATATAATTTACTGGTAAATTTTAAATCATAGTTGAAAA
As to B2, the “% decrease =/− SE TP1” value is reported as 23 ± 5% and the “% decrease =/− SE TP2” value was 16 ± 4%.

B3: GS1819: dsRNA trigger SEQ ID NO 209; gene target Putative ATP-dependent RNA helicase PB1A10.06c (nucleic acid)
DNA: CTGGTGCCCTTAACTTGATGGTAAGATTATTCGGCAGAGTTTTTACCATTTGAATATTTGGTATTGATTTATATCCTTGAGCCTCATTTATTTGCTGGATAGCCCAAGCCTTAAACGCAGATCTTTCTTTTCTAGGCGTATTCTCAATTTCATCGCAATCATCAGAACTTTCATTCTCATCACGGCTACTTTCTTTACTGCTATCTGACTCGTAATCAGATAAATTTGGTCCAATTTTATCTCCAACGTCTTCTGAGGAATTTGTCATGTTTCCTATGGTATCACGCTGGATTGACATACTTGAATCTGAGTTTATACCTTCCCATTCTGATTCATCATCGGTGACAGGCTTGCGAATATCAAGAGAAAATTTAGATACAATGCCGCCTCGTCGTTTTCTTTTCCCCAGAATAGGAATTCCCTCCTTACTTATTTCGAGTGGCTTTTTTTAATCCAGCTCCCACAGTTATATCTGTTTGCTTCTGAGTAGTAAGTACTGAAGCTTTAGAGGTCTCATCGATATTATCGTCACATGGAGATATTCTCAGATCATCATTGGTTACAGTACTCTCATCGGAATTGAATTGATTTTCGTT
For B3, the “% decrease =/− SE TP1” value was 12 ± 6% and the “% decrease =/− SE TP2” value stood at 8 ± 9%.

B4: GS1823: dsRNA trigger SEQ ID NO 158; gene target Guanine nucleotide-binding protein subunit beta-like protein (nucleic acid)
DNA: TAGCCAGTATCTGTTAGGCGAAAAAACAAGCGCATGGATCAAATCACCAGCATTGAGAGAATATAAATGCTTAGACTCATTTAGATCCCACAACATAGTAGTCCCATCTTTCCCACCTGATGCGCAGAGAGAACCGTCCGGCGAGATGGTGACAGTATTTATGTAACCATTGTGGCCAATATGGTCAGTCTGTAGTTTACAAGAGGATAATTCCCAGACCTTCACAAGTTTGTCCCAGCTACTGCTGACAATGACTGGATTTTGTGGATTTGGGCTGAATCGTACACAAGATACCCAATCATTATGACCTTTTTCAGTAATGGTGAACTTGCAATCACCTAGAGTATTCCAGAGCTTAATTGTTCGATCACGAGAGCCCGAGACAATTTGCCTGTTGTCAGCGGAAAAAGAAACAGAAAGAACATCATTTGTGTGGCCGACAAATCTCCTTGTTGTGGTTCCTGTTGCAAGCTCCCAGAGTCGGAGAGTTTTATCCCAAGAAGCAGATAGAGCATAAGCACCATCAGAAGAAATTACACAGTCGGAAACTATATGAGAGTGGCCATGAAGTGATCGCTTTGGGTAACCGTAGGAA
B4: the “% decrease =/− SE TP1” value was determined as 31 ± 8% and the “% decrease =/− SE TP2” value is given as 26 ± 8%.

B5: GS1821: dsRNA trigger SEQ ID NO 131; gene target ABC transporter ATP-binding protein ARB1 (nucleic acid)
DNA: AACACCATTAGGCCCTACCAAAGCTGTTCGAGAGTCCATATCAACACCTAGATCCAAATGTCTGTATAAATCATCTTTAGGATCACCAGAGTATGAAAAAGTAACATCGTCAAATGATAACACTGGTGGAGGAAGTTTTTCCACGTCTGCAAATCTGAAAGTAAAGATACGGTCAGGCTCAACTTTTTGAATGAAGCCATCTGCTTCCATCTTGTCTAGTATTTTTTGTCGTGATTTAGCCTGTCTGACTAAGTTGGCATAAGTACCAGCAGATGCAATAAATTTTTTGATATGAGCGATTTCGTCTTGTTGCTTGTGATAAGCTTTCATTTGGTTGACTTCTAACTCAGAGCGGGTCTTTTGGTATGTATCATAATTTCCACCATAATATGTAAGTTGTTTTTGCCGCATATCAATCATATTGGTGCAGACTCCATTTAGAAAGTCCATTGAATGAGACACTAATACAAGACTTCGATCCCACTTCTTAAGATATTCTTCAAGCCACACACAAGCTTCCAAGTCTAAGTGCGCAGTCGGATCATCAAGTAGAAGTAAAGATGGCTTAACAAAAAGGGCTTTTGCTAAAGCTACA
As to B5, the “% decrease =/− SE TP1” value was determined as 29 ± 5% and the “% decrease =/− SE TP2” value was 19 ± 6%.

B6: GS1825: dsRNA trigger SEQ ID NO 141; gene target Serine/threonine-protein kinase cek1 (nucleic acid)
DNA: CGACCGATTAATCCCATTCTAGACAAGCCAAAATCTGTCAATTTAAGATGGCCTTTCTGATCAATTAAGAGATTGTCAGGTTTAAGATCTCGATGAACTATCCCTCGACTATGAAGATGTTTGACCCCTAGGATAACCTCACCTAAGTATTTTCTTGCCCAATCCTCTTGAAGACCGCCTAAAGCCTTTATAAGTGACGCACAGTCGCCTCCATTCAAATATTCCATAACCAAGTAGAGATAGTCTTTACTTGAGAATGTCCAGTATAATTTAGCTACAAAGTCACTCTCACCTTGCCACATCATGATTGCACGTTCAGCTTTAACGTTAGTTACCTGATTTTTGGCTACCATATCGGCTTTTTTAAGTACTTTGATTGCATAGTAGTCACCTGTAGATTTTTTCTTGGCAAGATAAACACTTCCGAATGCACCTTTACTGATAGGTTTTATTATTTCAAAGTCTTTTATGGAGGGTGGAACAATACGGGCTTGGGGAACACCGACAGTTGATAAACGAGGTGATGGAGGTAGTCGAGATGGGTCAGAGCCTGCAGCAGAAGATTGACGTCTATGGTGATGAGGTAGAAGAGCA
On to B6, for which the “% decrease =/− SE TP1” value is listed as 28 ± 5% and the “% decrease =/− SE TP2” value was 18 ± 6%.

B7: GS1820: dsRNA trigger SEQ ID NO 164; gene target Mitochondrial carrier protein LEU5 (nucleic acid)
DNA: TTTTTTACAGCCTCTTTGGGAAATCTTATGGATTGAGGCGAAGGCGGAACTTCATTATATATGATTTTGCAAATGTGTGAAAAGCTTGAGCTCGCACCTTTCTTTGTTTCAAAAGCTAGCCGAACCCTTATGACTTCTAAGGGATATGTGAAGAAAACACTAGCGACGCCTGCTAAACTGCCACTTAACAATCTTCGTAATGATGTTTCTTGCGTAGGTGATGATATAAGAAATGATCGTATTTGCTCGTAGGTTAAAAACTTGATCGCAGCATAAGGAAATATCCGAATTATAGTGGCAGAATGGCCACGAAATAGACCACTAATTCCATCAGTAGCTTTGATTTGCCGTATAGCAGTCACAACGCCGAGCCAGCTCCCAGCGTATCTGGAAAATTGTGGATTAGAAGATTGGAATAATATCTTCACACGATCTAAAGGTGCCACTATAGTTTTTGCCGCACTCCCTGCTAGTCCTCCAGCTAATCCTGACCGCCATATGAATCCCAAAGATTGCTTTTCATGAGTTTGGGATTTTGATGAATCTTTTTTATTTTTCGTAGAAGGGTATACTGCAATATTACTTTCATATAAAT
With B7, the “% decrease =/− SE TP1” value was determined as 23 ± 4% and the “% decrease =/− SE TP2” value came out at 10 ± 6%.

B8: GS3939 (nucleic acid)
sense: AAGAUUGAAAAUGGAACGCCUAGAACAGCACCUUUAAUUACAACACGAAGGACUCCGAAAAUGCUACGAUCUACUGUGUCAAAUUCCUCGCUUUCCUCACAACCAUCAAUGUCACCGCAUCAAUUUAUUGCUCUUGCCCGGGAAGCAAUGAAAAAUGCUUUGGAAGAGAACAAAUCAAAGGCAGCUGAGGCCAAAAGUGUUAGUAAUGAACUUAAGCCAGGGGUUACGAUCGAUUUUAGCAACAAACAAAUCCAACGAUUUCCUGAUGAAGUAAUUGAUAUAAUAAAGAAUGAGCUUGAAAGACUUGCGCUGUCACAUAAUCAAAUAUCUGUGUUUCCCUCAAGGUUUUCCGAAUGCAAAUCACUCCGAUACCUCAAUGUUAGAGAUAAUGUUAU
antisense: AUAACAUUAUCUCUAACAUUGAGGUAUCGGAGUGAUUUGCAUUCGGAAAACCUUGAGGGAAACACAGAUAUUUGAUUAUGUGACAGCGCAAGUCUUUCAAGCUCAUUCUUUAUUAUAUCAAUUACUUCAUCAGGAAAUCGUUGGAUUUGUUUGUUGCUAAAAUCGAUCGUAACCCCUGGCUUAAGUUCAUUACUAACACUUUUGGCCUCAGCUGCCUUUGAUUUGUUCUCUUCCAAAGCAUUUUUCAUUGCUUCCCGGGCAAGAGCAAUAAAUUGAUGCGGUGACAUUGAUGGUUGUGAGGAAAGCGAGGAAUUUGACACAGUAGAUCGUAGCAUUUUCGGAGUCCUUCGUGUUGUAAUUAAAGGUGCUGUUCUAGGCGUUCCAUUUUCAAUCUU
With B8, the “% decrease =/− SE TP1” value is given as 4 ± 5%.
